± gives the uncertainty stated by the source.
Test: amyloid nucleation score (Sup35N fusion, yeast selection) (log enrichment); library NNK3; higher = more nucleation; inactive = no reads after selection
Summary of the method: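 The nucleation score is a DiMSum log enrichment of output over input reads, centred on the mode score of non-aggregating sequences. Sequences under 100 input reads were excluded, and reads came from Illumina sequencing of plasmid inserts. Psi-negative yeast expressing Sup35N fused to peptides of 20 random codons were induced with 100 μM copper sulfate for 24 hours and grown 7 days at 30°C on medium lacking adenine and uracil. Random libraries had three technical output replicates.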
For SDRNSEGLTLF, the amyloid nucleation score was “inactive”. SDVDDKVHKVHQQLVAILHF showed an amyloid nucleation score of 0.624 ± 0.17. For SDVYWISLFVATSICCRSGA, the amyloid nucleation score was “inactive”. For SEDDC, the amyloid nucleation score was “inactive”. With SEGSNNVSCSI the amyloid nucleation score was “inactive”. SELRC gave an amyloid nucleation score of 0.114 ± 0.44. With SEMELDLSFSPPYRGLPIIV the amyloid nucleation score was “inactive”. In the case of SENSRRSLSAYFLQYGLWFW, the amyloid nucleation score is reported as “inactive”. In the case of SESLMYRAKRVSTHYNFMCL, the amyloid nucleation score is reported as “inactive”. In the case of SETDFYHGFIWGIPIGALSG, the amyloid nucleation score is reported as “inactive”. For SEVFFGSVPNDARDKLNTNP, the amyloid nucleation score was “inactive”. For SEVFNQLGTARSNMARRACA, the amyloid nucleation score was “inactive”. For SFCIIY, the amyloid nucleation score was “inactive”. With SFCYN the amyloid nucleation score was “inactive”. Substance SFFFHSKSSGKTLNWSSDKA has an amyloid nucleation score of 0.956 ± 0.091. With SFFNFRMD the amyloid nucleation score was “inactive”. In the case of SFGMCTMYFYLNVCMAKGAR, the amyloid nucleation score is reported as “inactive”. With SFICVSSDLCARARVGDSSR the amyloid nucleation score was “inactive”. With SFKATV the amyloid nucleation score was “inactive”. SFKFMYNSFRSNGDIFSFNR showed an amyloid nucleation score of 2.35 ± 0.073. For SFKQIIDRFTSSFIVIFGLR, the amyloid nucleation score was “inactive”. In the case of SFLCLISIHCTDNDNGMHNC, the amyloid nucleation score is reported as “inactive”. In the case of SFLSNCSFPDRSMKAYFIYY, the amyloid nucleation score is reported as 0.939 ± 0.11. For SFNTLIILSILFVLRQCGTR, the amyloid nucleation score was “inactive”. In the case of SFRHKYYEHRPTIWDMDCDL, the amyloid nucleation score is reported as “inactive”. For SFRSGLLSGRKWGHPVSSQE, the amyloid nucleation score was “inactive”. For SFRSNVGFEVFLIATELRFC, the amyloid nucleation score was “inactive”. With SFSEPAHWPSCSRFVRDCVS the amyloid nucleation score was “inactive”. With SFSLYLFPSRGLAPLPTAWL the amyloid nucleation score was 1.86 ± 0.089. For SFSVSKAWGWMYSIQRCCLC, the amyloid nucleation score was “inactive”. In the case of SFTSC, the amyloid nucleation score is reported as “inactive”. For SFYFWSDAYACIKARRM, the amyloid nucleation score was “inactive”. With SFYWMHMSAMIEYDPFTYGA the amyloid nucleation score was “inactive”. For SGFDYV, the amyloid nucleation score was “inactive”. Work on SGFFMMVYRR yielded an amyloid nucleation score of -0.364 ± 0.75. With SGFPMVSIFESSI the amyloid nucleation score was “inactive”. Substance SGIFKLNCHKVGLILQSPYR has an amyloid nucleation score of 0.055 ± 0.35. With SGIRDHLMRTKFDFVFKM the amyloid nucleation score was “inactive”. With SGKGE the amyloid nucleation score was “inactive”. For SGLDSWY, the amyloid nucleation score was “inactive”. In the case of SGLSNRGCCIMSY, the amyloid nucleation score is reported as “inactive”. With SGMVCVSLVG the amyloid nucleation score was “inactive”. In the case of SGNNMRLHTTGLVASNGLGS, the amyloid nucleation score is reported as “inactive”. For SGNWTDRTVIPYHYYIDKLN, the amyloid nucleation score was “inactive”. In the case of SGPRDSRLCRDSSVSGVYLS, the amyloid nucleation score is reported as “inactive”. For SGRVTRWITSAMVARN, the amyloid nucleation score was “inactive”. With SGVKFSYNWQR the amyloid nucleation score was “inactive”. For SGWYWICLKHRGQVDHPLST, the amyloid nucleation score was “inactive”. For SHECNLCFNVL, the amyloid nucleation score was “inactive”. For SHMEWFT, the amyloid nucleation score was 1.92 ± 0.088. With SHRFLDNFRFTMYTDVLGIE the amyloid nucleation score was “inactive”. In the case of SIALH, the amyloid nucleation score is reported as “inactive”. For SICSEVGSSQLVVL, the amyloid nucleation score was “inactive”. In the case of SIFLMSFRA, the amyloid nucleation score is reported as 1.41 ± 0.1. With SIGISEPLIIYLFNWQLLYW the amyloid nucleation score was “inactive”. In the case of SIGTKLASCLYLKR, the amyloid nucleation score is reported as “inactive”. Work on SIINLDLTAGHRYFYSSRSR yielded an amyloid nucleation score of 2.11 ± 0.071. With SIKLGFYIIIFDLWYSPMMV the amyloid nucleation score was “inactive”. With SIKYSGFMWTWVNLLDPTVP the amyloid nucleation score was “inactive”. In the case of SILKDS, the amyloid nucleation score is reported as “inactive”. In the case of SILLVMP, the amyloid nucleation score is reported as “inactive”. With SILRVGKERRSGYSSGEEY the amyloid nucleation score was “inactive”. For SILYMVIASWYLY, the amyloid nucleation score was “inactive”. In the case of SIMIVLCGKLTLNFSLRNVV, the amyloid nucleation score is reported as “inactive”. For SIQKSWDASGSLIYS, the amyloid nucleation score was “inactive”. For SISRLCVRMRIYKRTVAIYL, the amyloid nucleation score was “inactive”. In the case of SISTFYMLNMLKNMHLDGFG, the amyloid nucleation score is reported as “inactive”. With SISTQCWSPYVAFHSWKTH the amyloid nucleation score was 0.416 ± 0.79. For SISWRYWKSI, the amyloid nucleation score was “inactive”. Work on SIVRIFIIN yielded an amyloid nucleation score of 2.27 ± 0.056. With SIVSPIMRLFCFGLRAYKAV the amyloid nucleation score was “inactive”. For SKAYKAYNVLRLISI, the amyloid nucleation score was “inactive”. In the case of SKCSVGVLTRFR, the amyloid nucleation score is reported as “inactive”. For SKDNWSRSTYTGACLR, the amyloid nucleation score was “inactive”. With SKLFFRNTLVSIISM the amyloid nucleation score was “inactive”. In the case of SKLKATRTRL, the amyloid nucleation score is reported as “inactive”. For SKRVSALRHKIRKNCVMNFD, the amyloid nucleation score was “inactive”. With SKTIYWFPPYPYVQFGCHRR the amyloid nucleation score was “inactive”. With SKVACTRLDCMVFKCGTS the amyloid nucleation score was “inactive”. Substance SLAYCLLEWMES has an amyloid nucleation score of -0.172 ± 0.48. For SLCRSLGLGLLAPYRFFTWR, the amyloid nucleation score was “inactive”. With SLDIWGCSKGRRWSGFKI the amyloid nucleation score was “inactive”. With SLDLENILSAE the amyloid nucleation score was “inactive”. In the case of SLEGTYGHLRQELTTSPNAH, the amyloid nucleation score is reported as 0.907 ± 0.17. With SLFFSYV the amyloid nucleation score was “inactive”. For SLGEKMNVASLQAVMSC, the amyloid nucleation score was “inactive”. In the case of SLGNITVPAT, the amyloid nucleation score is reported as “inactive”. In the case of SLGSNEKYWERRVSSHNWTT, the amyloid nucleation score is reported as “inactive”. With SLGSPYRTRGCLNKSPPLAC the amyloid nucleation score was “inactive”. With SLGVEVKCNTIP the amyloid nucleation score was “inactive”. With SLGVNLSISVGKYEYSLSLK the amyloid nucleation score was “inactive”. With SLIVQAL the amyloid nucleation score was “inactive”. With SLKPLVYMGLST the amyloid nucleation score was “inactive”. In the case of SLLTDTFFIVLWTFT, the amyloid nucleation score is reported as “inactive”. With SLMDGFLPNSGEFRIKYAVL the amyloid nucleation score was “inactive”. For SLNFLR, the amyloid nucleation score was 0.937 ± 0.39. SLNILWRSVCFTGCERGYLG showed an amyloid nucleation score of 0.763 ± 0.2. For SLPYCGVTSLSHSWVPMAIR, the amyloid nucleation score was “inactive”. SLQISLRYKVIMQRMP gave an amyloid nucleation score of 1.24 ± 0.16. With SLQKWWDSLTHNLMVVTKHG the amyloid nucleation score was “inactive”. In the case of SLRPMLYTSYSS, the amyloid nucleation score is reported as 0.914 ± 0.17. For SLRSFECFSSCTGLWCMLWG, the amyloid nucleation score was “inactive”. In the case of SLRSYSDVSVVRFDANSTVS, the amyloid nucleation score is reported as “inactive”. For SLSILT, the amyloid nucleation score was “inactive”. In the case of SLSLRWFVGCKGSDGSALQC, the amyloid nucleation score is reported as “inactive”. Work on SLSLWESRCQITFPLVIKVE yielded an amyloid nucleation score of -0.017 ± 0.7. For SLSMATFKAILSLFADTWWR, the amyloid nucleation score was “inactive”. In the case of SLSNVGLANFLFSRPSLRSY, the amyloid nucleation score is reported as “inactive”. For SLSPAGSGSFFGKGFWMMLA, the amyloid nucleation score was “inactive”. With SLSVSYDVLWRIFSGNNGNW the amyloid nucleation score was 1.25 ± 0.083. With SLSWHK the amyloid nucleation score was “inactive”. With SLSYFLSFS the amyloid nucleation score was 1.14 ± 0.085. For SLTALDNWCRIFAMPVLSWK, the amyloid nucleation score was “inactive”. For SLTSSFFSSMDVFNSALKGG, the amyloid nucleation score was “inactive”. For SLTVFLWVAQRVAAMRAGVL, the amyloid nucleation score was “inactive”. In the case of SLVGRSCLRY, the amyloid nucleation score is reported as “inactive”. In the case of SLVMAEVITPIGLSFCSNYT, the amyloid nucleation score is reported as “inactive”. For SLVNGAWLAVMNMSRCLWIF, the amyloid nucleation score was “inactive”. In the case of SLWHMRVWMLCCKGPKTWRF, the amyloid nucleation score is reported as “inactive”. With SLYKYRIWCMVFVVYFSQSQ the amyloid nucleation score was “inactive”. With SLYVSVLYIYRDY the amyloid nucleation score was 1.77 ± 0.077. For SLYYSTCIK, the amyloid nucleation score was “inactive”. In the case of SMCGNWGNWASVGWNFCWRV, the amyloid nucleation score is reported as “inactive”. In the case of SMCNTSLYWLDHGADLLRSL, the amyloid nucleation score is reported as “inactive”. For SMDWHAYLDRILLYVRSHS, the amyloid nucleation score was “inactive”. In the case of SMLQAMEYYNIGIVYNHKIW, the amyloid nucleation score is reported as “inactive”. SMNFSSWWRLCCDEGSGSYT gave an amyloid nucleation score of 0.671 ± 0.19. For SMNKFKF, the amyloid nucleation score was “inactive”. With SMRYVTLKPNF the amyloid nucleation score was “inactive”. With SMSFFMSNGRALLYCQMQFA the amyloid nucleation score was “inactive”. For SMVFLASLY, the amyloid nucleation score was “inactive”. In the case of SMVNWFMLRTAVVVQSRVAV, the amyloid nucleation score is reported as “inactive”. With SMYRYAKETT the amyloid nucleation score was “inactive”. In the case of SNAFVYFRFLTFDSRFCCYY, the amyloid nucleation score is reported as 1.56 ± 0.074. In the case of SNDHKITD, the amyloid nucleation score is reported as “inactive”. For SNFGTNSIYMCTAMIPM, the amyloid nucleation score was “inactive”. For SNFTTPLHE, the amyloid nucleation score was “inactive”. For SNGAGC, the amyloid nucleation score was “inactive”. Work on SNIMHQNVTCESFYCRSSLW yielded an amyloid nucleation score of 1.81 ± 0.067. In the case of SNMIRVRWRVAFRGWMARCL, the amyloid nucleation score is reported as “inactive”. In the case of SNSFLFYFEYSGVKLRRLGL, the amyloid nucleation score is reported as “inactive”. For SNSFSSSLLCLDARD, the amyloid nucleation score was “inactive”. With SNSLV the amyloid nucleation score was “inactive”. Substance SNSRVGIFWDRLVFRYCRGM has an amyloid nucleation score of -0.5 ± 1. Substance SNSVFIWYWPEWVEDWSSWL has an amyloid nucleation score of 0.607 ± 0.16. For SNTYCVPYRKGEELVYCGSW, the amyloid nucleation score was “inactive”. For SNWSWQSPW, the amyloid nucleation score was “inactive”. For SNWVLACYKI, the amyloid nucleation score was “inactive”. For SNYPWCSSSYYLGKISDLCS, the amyloid nucleation score was “inactive”. In the case of SNYVKKQIALS, the amyloid nucleation score is reported as “inactive”. In the case of SPRKTNEAWPTGLSYETSVA, the amyloid nucleation score is reported as “inactive”. With SPRLYETRMLPLTMGCGGDD the amyloid nucleation score was “inactive”. For SPRRH, the amyloid nucleation score was “inactive”. In the case of SPSEMIAFWFNSTFVTSASG, the amyloid nucleation score is reported as -0.46 ± 1.7. In the case of SPYPITGLFWCFINWSHKVM, the amyloid nucleation score is reported as “inactive”. SQCYCVYAGVVT showed an amyloid nucleation score of 0.034 ± 0.51. With SQSGELFSDMMVLLG the amyloid nucleation score was “inactive”. With SQTLYLGARVNRMRYVFSAC the amyloid nucleation score was “inactive”. In the case of SQVGMSPYRSCSINKWCPGI, the amyloid nucleation score is reported as “inactive”. In the case of SQVVDW, the amyloid nucleation score is reported as “inactive”. In the case of SQWIGFIEGCGNWMGYLACV, the amyloid nucleation score is reported as “inactive”. In the case of SREIYSMVMQSHLVQWGVIA, the amyloid nucleation score is reported as “inactive”.
